Experimental data from paper PMC4359774, “AZT resistance alters enzymatic properties and creates an ATP-binding site in SFVmac reverse transcriptase”.

Target: T1, SFVmac PR-RT WT (Simian foamy virus from macaques …, UniProt P23074 1-751)
T1 sequence: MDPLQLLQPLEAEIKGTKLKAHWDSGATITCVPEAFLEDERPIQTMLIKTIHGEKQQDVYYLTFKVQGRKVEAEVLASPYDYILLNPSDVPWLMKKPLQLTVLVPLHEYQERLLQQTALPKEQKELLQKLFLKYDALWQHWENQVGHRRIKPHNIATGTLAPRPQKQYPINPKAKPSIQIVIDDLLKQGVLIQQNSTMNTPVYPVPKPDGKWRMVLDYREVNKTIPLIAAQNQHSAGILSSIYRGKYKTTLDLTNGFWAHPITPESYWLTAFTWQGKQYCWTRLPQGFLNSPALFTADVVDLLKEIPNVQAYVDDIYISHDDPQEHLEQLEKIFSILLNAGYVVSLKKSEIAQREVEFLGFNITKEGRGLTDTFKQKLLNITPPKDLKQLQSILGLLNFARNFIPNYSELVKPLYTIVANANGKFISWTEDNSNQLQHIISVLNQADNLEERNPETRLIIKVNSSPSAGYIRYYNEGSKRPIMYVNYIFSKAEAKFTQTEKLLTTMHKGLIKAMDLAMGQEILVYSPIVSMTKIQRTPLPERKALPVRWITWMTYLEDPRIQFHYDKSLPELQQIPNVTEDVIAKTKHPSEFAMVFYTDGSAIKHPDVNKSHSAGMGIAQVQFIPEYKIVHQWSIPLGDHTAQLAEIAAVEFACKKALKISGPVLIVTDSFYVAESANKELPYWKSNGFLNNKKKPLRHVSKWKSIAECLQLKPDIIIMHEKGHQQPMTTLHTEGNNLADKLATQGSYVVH
Assay: fluorescence anisotropy; Fluorescence equilibrium titration, 5 nM DNA, 25 C; buffer, salt and pH not given in the material (refs 14, 43)
Settings: protein: recombinant; label: 5' DY647 on template (S6); 24 bp; template 5' overhang 5 nt and 3' overhang 11 nt

B1: 24/40-mer DNA/DNA primer/template (dsDNA)
DNA 1: CTAATTCCGCTTTCCCCTCTCCTGGTGATCCTTTCCATCC
DNA 2: ATCACCAGGAGAGGGGAAAGCGGA
Kd: 9.6 ± 0.7 nM
